Data published in IntAct's records for PubMed 20691684.

B1: NSFL1 cofactor p47 (Rattus norvegicus (Rat)), O35987 (parent)
chain: MAEERQDALREFVAVTGAEEDRARFFLESAGWDLQIALASFYEDGGDEDIVTISQATPSSVSRGTAPSDNRVTSFRDLIHDQDEEEEEEEGQRFYAGGSERSGQQIVGPPRKKSPNELVDDLFKGAKEHGAVAVERVTKSPGETSKPRPFAGGGYRLGAAPEEESAYVAGERRRHSGQDVHVVLKLWKTGFSLDNGDLRSYQDPSNAQFLESIRRGEVPAELRRLAHGGQVNLDMEDHRDEDFVKPKGAFKAFTGEGQKLGSTAPQVLNTSSPAQQAENEAKASSSILINEAEPTTNIQIRLADGGRLVQKFNHSHRISDIRLFIVDARPAMAATSFVLMTTFPNKELADENQTLKEANLLNAVIVQRLT
B2: UBX domain-containing protein 2B (Mus musculus), Q0KL01 (parent)
chain: MAEGGRAEPEEQERGSSRPRPPSARDLQLALAELYEDEMKCKSSKPDRSTPATCRSPRTPPHRLYSGDHKYDGLHIVQPPTGKIVNELFKEAREHGAVPLNEATRSSREDKTKSFTGGGYRLGNSFYKRSEYIYGENQLQDVQVLLKLWRNGFSLDDGELRPYSDPTNAQFLESVKRGETPLELQRLVHGAQVNLDMEDHQDQEYIKPRLRFKAFSGEGQKLGSLTPEIVSTPSSPEEEDKSILNAAVLIDDSMPTTKIQIRLADGSRLVQRFNSTHRILDVRDFIVRSRPEFATTDFILVTSFPSKELTDETVTLQEADILNTVILQQLK

Variants of: B1
Details: with tera_rat Vcp
Target sequence in this assay (P46462 whole entry): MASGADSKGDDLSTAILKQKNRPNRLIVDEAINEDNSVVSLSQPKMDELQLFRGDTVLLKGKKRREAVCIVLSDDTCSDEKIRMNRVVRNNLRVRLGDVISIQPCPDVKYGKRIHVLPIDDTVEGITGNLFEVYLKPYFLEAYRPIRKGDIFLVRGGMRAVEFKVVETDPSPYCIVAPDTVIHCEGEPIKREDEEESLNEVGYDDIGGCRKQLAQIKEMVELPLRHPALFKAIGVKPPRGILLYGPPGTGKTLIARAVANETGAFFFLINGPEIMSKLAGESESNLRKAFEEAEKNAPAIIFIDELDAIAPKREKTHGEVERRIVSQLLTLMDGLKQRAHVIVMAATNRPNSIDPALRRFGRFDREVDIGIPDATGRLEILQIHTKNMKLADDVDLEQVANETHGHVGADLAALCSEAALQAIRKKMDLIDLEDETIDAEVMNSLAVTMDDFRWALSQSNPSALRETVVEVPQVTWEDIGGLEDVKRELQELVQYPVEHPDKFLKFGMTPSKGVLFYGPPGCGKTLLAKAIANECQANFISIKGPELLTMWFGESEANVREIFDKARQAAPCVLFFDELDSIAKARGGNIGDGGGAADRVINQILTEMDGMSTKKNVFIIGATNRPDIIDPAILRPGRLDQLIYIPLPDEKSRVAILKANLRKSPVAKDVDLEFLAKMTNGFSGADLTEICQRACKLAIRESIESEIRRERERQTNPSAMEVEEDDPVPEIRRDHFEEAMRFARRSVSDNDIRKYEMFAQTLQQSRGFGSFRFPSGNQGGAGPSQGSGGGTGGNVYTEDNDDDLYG

Variant	effect of a mutation on the interaction
MAEERQDALREFVAVTGAEEDRARFFLESAGWDLQIALASFYEDGGDEDIVTISQATPSSVSRGTAPSDNRVTSFRDLIHDQDEEEEEEEGQRFYAGGSERSGQQIVGPPRKKSPNELVDDLFKGAKEHGAVAVERVTKSPGETSKPRPFAGGGYRLGAAPEEESAYVAGERRRHSGQDVHVVLKLWKTGFSLDNGDLRSYQDPSNAQFLESIRRGEVPAELRRLAHGGQVNLDMEDHRDEDFVKPKGAFKASTGEGQKLGSTAPQVLNTSSPAQQAENEAKASSSILINEAEPTTNIQIRLADGGRLVQKFNHSHRISDIRLFIVDARPAMAATSFVLMTTFPNKELADENQTLKEANLLNAVIVQRLT [F253S]	disrupting interaction

Variants of: B1
Details: with tera_mouse Vcp

Variant	effect of a mutation on the interaction
MAEERQDALREFVAVTGAEEDRARFFLESAGWDLQIALASFYEDGGDEDIVTISQATPSSVSRGTAPSDNRVTSFRDLIHDQDEEEEEEEGQRFYAGGSERSGQQIVGPPRKKSPNELVDDLFKGAKEHGAVAVERVTKSPGETSKPRPFAGGGYRLGAAPEEESAYVAGERRRHSGQDVHVVLKLWKTGFSLDNGDLRSYQDPSNAQFLESIRRGEVPAELRRLAHGGQVNLDMEDHRDEDFVKPKGAFKASTGEGQKLGSTAPQVLNTSSPAQQAENEAKASSSILINEAEPTTNIQIRLADGGRLVQKFNHSHRISDIRLFIVDARPAMAATSFVLMTTFPNKELADENQTLKEANLLNAVIVQRLT [F253S]	disrupting interaction

Variants of: B2
Details: with tera_rat Vcp
Target sequence in this assay (P46462 whole entry): as the sequence (P46462 whole entry) above

Variant	effect of a mutation on the interaction
MAEGGRAEPEEQERGSSRPRPPSARDLQLALAELYEDEMKCKSSKPDRSTPATCRSPRTPPHRLYSGDHKYDGLHIVQPPTGKIVNELFKEAREHGAVPLNEATRSSREDKTKSFTGGGYRLGNSFYKRSEYIYGENQLQDVQVLLKLWRNGFSLDDGELRPYSDPTNAQFLESVKRGETPLELQRLVHGAQVNLDMEDHQDQEYIKPRLRFKASSGEGQKLGSLTPEIVSTPSSPEEEDKSILNAAVLIDDSMPTTKIQIRLADGSRLVQRFNSTHRILDVRDFIVRSRPEFATTDFILVTSFPSKELTDETVTLQEADILNTVILQQLK [F215S]	disrupting interaction
